Tests used:
[1] = molecular target: T1, transmembrane hCD40 receptor expressed on the surface of CHO cells (CHO-CD40-GFP) (human, UniProt P25942 21-277); assay: single-molecule force spectroscopy (AFM, SMFS); hCD40L coupled by its His6-tag to the PEG-tris-NTA AFM tip; living CHO cells expressing hCD40; room temperature; HEPES buffer (137 mM NaCl, 2.7 mM KCl, 10 mM HEPES, pH 7.4) with 50 µM NiCl2; contact time and pulling speed varied; Bell-Evans and Markov binding models; details: one partner purified
T1 construct: CD40 (TNFR superfamily), human; expressed from a CD40 green fluorescent protein fusion construct (Origene #RG201977) on CHO cells; source: CHO cells, transfected (Lipofectamine 2000), G418-selected and sorted by GFP; on living cells

[2] = molecular target: T1, transmembrane hCD40 receptor expressed …; assay: as above; details: one partner purified; remark: listed apart in the source

T1 sequence (P25942 21-277): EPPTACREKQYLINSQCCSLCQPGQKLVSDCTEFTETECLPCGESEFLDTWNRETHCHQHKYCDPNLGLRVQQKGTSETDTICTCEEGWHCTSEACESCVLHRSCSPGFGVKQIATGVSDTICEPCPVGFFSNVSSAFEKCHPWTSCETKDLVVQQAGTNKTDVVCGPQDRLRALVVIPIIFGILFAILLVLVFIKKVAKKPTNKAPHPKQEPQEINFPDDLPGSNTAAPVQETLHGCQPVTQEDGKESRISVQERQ

Kd [1]: 3.3 µM
koff [1]: 0.35 s⁻¹
kon [1]: 160000 M⁻¹ s⁻¹
Kd [2]: 3.2 µM
B1: Active trimeric human CD40 ligand (hCD40L/hCD154; residues 116G-261L) with N-terminal His6-tag (CDL-H5248) (ligand, UniProt P29965 116-261, looked up)
chain: GDQNPQIAAHVISEASSKTTSVLQWAEKGYYTMSNNLVTLENGKQLTVKRQGLYYIYAQVTFCSNREASSQAPFIASLCLKSPGRFERILLRAANTHSSAKPCGQQSIHLGGVFELQPGASVFVNVTDPSQVSHGTGFTSFGLLKL
notes: CD40 ligand (CD154), human, residues 116G-261L; Used for SMFS (coupled to the tip by its His6-tag through tris-NTA/Ni) and for HS-AFM; also called trimeric hCD40L; source: bought: AcroBiosystems, USA (CDL-H5248); not shown: His6, N-terminal, kept

From PMC12276331, “Nanomechanical binding mechanism of ligands drives agonistic activity” (Nature Communications, 2025)
